Assay: label from the status in PepcDB records

Sequence | protein production
MRKLLSVIVSLMTAMAFAQQPVELPLWPDGAPNSNGLTGGEKEVSPHRLSNVTAPTITVYRAPQPNGMAVIMCPGGGYSRLAMDHEGHDMASWFCGQGITYVVLKYRMPNGHCEVPLSDAERAIRIVREHAGEWNIHPRKIGIMGASAGGHLASTLATHYSAASRPDFQILLYPVVTMTQSTHGGSRKELLGGNPTAEQEVLFSNELQVTSDTPQAFIVLSSDDGAVPPSNGVNYYLALQKNNVPASLHVYPTGGHGWGFRDNFKYKQQWTQELEKWLREGVVFPKETAPMLRIGKTYLGTKYVANTLDQGTEEKLVILPQTVDCLTFVEYTLAQAMGSSFADNLQKIRYRDGVIDGYTSRLHYTSDWIENGVRQGFLEDVTAQNSTQTTKLSLSYMSTHPQKYRQLADSPENVKRMAEHEKALSGKKVHWLPKGKLPDAGLPWIMDGDIIAITTNLPGLDVAHVGMAEYINGKLHLLHASSTLGKVVVSEEPLSQMLRNNKSWSGIRVVRMSHP | failed
TLDPSAQAIAEAALARGVQAHQGQYGAVIMLETRTGRILAAATYPPFDPGNWRGKPDTQERVKNRAFLDAYEPGSTMKALTIAAALNDGITTPDTVYETPMSRHVGGRWGHTIGDAVDHPSSLTTQQVLRYSSNVGMSHIVEGFTYQKLRDYLAAYGFGQPVNLTGAVTAQGILKPIDKWNDLERATNSFGQGVSGTTLQVAAAYNAVANDGLYVTPRLIEGAPAGERHEVVRAASARTVREMLKAIVVEGKFASLEGYDLSGKTGTAQVATENGYSNSVYKSTYAGFFPSDTPRVTVAVMVHGAQGEHHGSQVAAPIFREIASGMLSEWGTAPE | failed
MPTDRSTPATRHRLGGWMASEEAHMAAYREKIAGEARAHAGERLRTPAVQELARLFDDNAVLRMSLTRAIDEALESGRKLGYASIGELMTVIDHLMTYTPPFSESSLIVCPLNAFLDWPMCMPSGHAVFRDAAVNAHLKQVLNVWCDFLGGPHSCTHLDTSAPDGWFCDEARERLGLSQFQYQEDQPHWGFASWNDFFTRRFRADARPVTAPGDPHVIVSACEAQPYHAESNLKIRDKFWIKGQPYSLRDIFTPARLPLAERFVGGDLYQAYLSAYNYHRWHAPVRGTVTHAYRVDGTYYSVAEAEGPDPAGLNDSQGYMTAVAARAVIAIDCDDPGIGTVVGVFVGMGDVSSCVIEVMPGQRIDKGEEIGYFQYGGSTYCLLFEPGVIDHFVHAPPFDDDTPVVQVNAPVAIAR | failed
MQSGDGRRGRLRIFFGFAAGVGKTYGMLTEAHELLMMGKHVVVGYIEPHDRPDTNRLLEGLPQIPPKNIFYKQMVLTEPDIDQIIQQKPEIVLIDELAHSNAEGSRNRKRYQDIDELLNAGIDVFTTVNVQHIESLNDIVEEVTGIEVKETVPDTFLRQATIRVIDVEPDELIERLEQGKIYANENAKRALKNFFIPQKLDQLRGLAIQRASDHINRISGKTIGIQSKLLTVVNDAFPKMTEKCIRWTARLAQGLVVDWTVIQVRTQENTPTNIPLADKLGAEVISIEEDDSFETIVEFAKMTGVTDIIMGKNLRQPWYEKIFIEAFDDRLLKRLKDTELHLIPFNEEKRSLFFKTRKVIEGGGKDLVIAIGGVFLATVVTELMQYIHVGDQNLMLIYISFVLLVARTTSGYFWSSLSSILSVLSFNWFFVEPLYSLTVYKQGYPFTLLLMLVVALMSSNLMIRLKKQADTSMKKEHQMEILYELNKRYVLVESRKQILDISATYLSRLLEREVIIFDRQVKTESVHCINEKKSILNNEDEAAVAFWAAKNQKEAGNGTDTLNGAKGFYLPIAAGRKTLAVLGIERNADLDLENDQLNYLKLVLTQIAVILEQTELKDEKEQVELENEREKVRSNLLRAVSHDLRTPLTVISGIAETLGIGNDLKEETQRKLLKDIQEESQWLIRMVENLLSITRINMDTMKVNKTAEPVEEVIEAVYKHLRKVYPDGQVDIHLPEEVIFIQADPILIEQALFNLIENAFRHGENDLPVKLNVYQEKEQTVFEIENHGEIPLKQFQKIQSNLSGTNEVPVDSKNGLGIGLSIVKTIVHAHNGKMEMTIGRGKTLVRIYLK | failed
SDPLYVPDPDPTKFPVNRNLTRKAGYLNARNKTGLVSSTWDRQFYFTQGGNLMSQARGDVAGGLAMDIDNCSVMAVDCEDRRYCFQITSFDGKKSSILQAESKKDHEEWICTINNISKQIYLSENPEETAARVNQSALEAVTPSPSFQQRHESLRPAAGQSRPPTART | failed
MKTREYYVAAAAGLIGGNVSSFVKWGTEIPFPPRTPDRPIPPLEMLDSLGINANQLTYVYSEHMVNYGSALIHQSFSIFFAIFYCLTALRYPRVAVWQGFGFGMLVTLAFHGVLLPMFHWAPPLWELPPAEWASETFGHLLWIWVIEVIRRDLQQRWSPGPG | failed
MADFQGETEMTAEVFDPRALRDAFGAFATGVTVVTASDAAGKPIGFTANSFTSVSLDPPLLLVCLAKSSRNYESMTSAGRFAINVLSETQKDVSNTFARPVEDRFAAVDWRLGRDGCPIFSDVAAWFECSMQDIIEAGDHVIIIGRVTAFENSGLNGLGYARGGYFTPRLAGKAVSAAVEGEIRLGAVLEQQGAVFLAGNETLSLPNCTVEGGDPARTLAAYLEQLTGLNVTIGFLYSVYEDKSDGRQNIVYHALASDGAPRQGRFLRPAELAAAKFSSSATADIINRFVLESSIGNFGIYFGDETGGTVHPIANKDAHS | not failed
MKQKELWINQIKGLCICLVVIYHSVITFYPHLTTFQHPLSEVLSKCWIYFNLYLAPFRMPVFFFISGYLIRRYIDSVPWGNCLDKRIWNIFWVLALWGVVQWLALSALNQWLAPERDLSNASNAAYADSTGEFLHGMITASTSLWYLYALIVYFVVCKIFSRLALPLFALFVLLSVAVNFVPTPWWGMNSVIRNLPYYSLGAWFGATIMTCVKEVPLRRHLLMASLLTVLAVGAWLFTISLLLSLVSIVVIMKLFYQYEQRFGMRSTSLLNVIGSNTIAIYTTHRILVEIFSLTLLAQMNAARWSPQVELTLLLVYPFVSLFICTVAGLLVRKLSQRAFSDLLFSPPSLPAAVSYSR | failed
MHVSSGRWVYGLFLALLTALLWGILPIKLKQVLQVMDPVTVTWFRLTVSGGCLLAYLAAVGRLPRWRVLGPKGIWLVPISVCGLVGNYVLYLMGLNLLSPGTAQLVVQMGPILLLIASLFVFKERFSLGQGLGLLVLLIGFGLFFNQRLSELLTSLSDYTAGVLTILAASAVWTFYALGQKQLLSVWNSLQVMMVIYLFCALLLTPWAHPLEALEVNPLQGWLLLGCCLNTLIAYGAFAEALAHWEASRVSATLAITPLVTFVAVAWAAWLWPEYVQAEQINGLGYGGALLVVLGSALTALGPSLMAGLRARRQRIAAG | failed
MDGEAFEISLLDGEEDRFGGTVVNLMEVESMTIGDFDSKLDVSLKAWKDQGKKGIWIKLPSELSSLVDTAIKKGFTYHHAENEYVMLTFWLPEPPSTLPCNASHRIGIGAFVLNKNGEMLVVQENSGYFKDKNVWKVPTGTIKEGESIWAGAVREVKEETDIDAEFVEVLSFMESHQAVWQRKTDIFFVCELEARTFEIQKQDSEIHAAKWMPVEEYVNQPYHNKEGNEMFKLIANICLKRSREKYTGFVLTTNSAKKSLYCSVDHANLLKETADQASTSLSD | failed
MAEKVKSGQVFNLLCIFSIFFFLFVLSVNVSADVDSERAVPSEDKTTTVWLTKIKRSGKNYWAKVRETLDRGQSHFFPPNTYFTGKNDAPMGAGENMKEAATRSFEHSKATVEEAARSAAEVVSDTAEAVKEKVKRSVSGGVTQPSEGSEEL | failed
MLGAVARGGWVYEVHAAGAGTDLYRVSLLEGYQEQRPLSAAESAALPALLPLVHAESALSEMGYFHGVMGSTADTALAYDRFVGHTRWFGGEDGTRLLNRIRTRLQRPGPVRFWNGSSPPTGEDRRAALVP | failed
MSLERLRVAAYCRVSTDSEDQLNSYKSQVQYYTDMIKKNKEWVLADIYADEAITGTQVTKREDFQRMINDCMNGEIDMVFTKSISRFARNTLDTLKYVRMLKERNIAVYFEDEKINTLTMDGELLLVVLSSVAQQEVENISANVKKGLKMKMKRGELVGFQEGHHHHHH | not failed
MPAPRFAQASEVPGLAARRIAADILDGVLQKRRMLDDQLEGPAAHPGLKTLSDRDRALMRRLVATILRRLGTLEGLLAKLLDRGVPTDAPRAKSALLIGAAQILWMDVPDHAAVDLSVRLVQSDRRAAKYAGLVNAVLRRCAREGQPLVEELAAGTPDVPQWLLARWSEHYGAETTRAIAHAISHEPSLDLTVKSDPAHWAARLHGEVLPTGTVRTLLQGSVRMLPGFDEGQWWVQDAAAALPARLFGDIAGKSVADLCAAPGGKTAQLAAAGARVTAIDRSPARVARLRENLARLSLKVETGVADAAEWRGDATAEFDAVLIDAPCASTGTIRRHPDVAWLKQESDIGALAAVQNRLLKKAASLLRPGGTLVYCTCSLEPEEGEQAIAALLDAESSMRRQPIDPAEVAGLAEIVTTDGALRTLPCHLPHSDPRLAGLDGFYAARLVKSL | failed
MTNNTDIKNQTNPMSGDLLRQIIRLGFPVAIQSALVAILALADVLMVSDFGKEATAAVGIASKWHFVAIMIMAGLASANGTLVAQYWGRNDAVSAKTVTGIAIRFGLKVLIPVTLIITLGSELIMRLQTSDTRVIELGATYLWYAFPVLLLTHIVIVLEASMRSSGDTVTPLLMGAMTIVLNIGLNFWLIKGGFGIPAMGVAGAAFATTISRLFQVLAMIAYMRWRKHWLLEVKEGSERPSLWLSYRRLALPMTLGALLWAIGTMVYQMIFGHMGTTELAVFSMLGPFESLCYSIFFGISVACSVMIGQSLGRDAFEQAEHMAKFFIKAVFVFGISIGALLLLNRELIIAALNLDNPELYPLAAPAVMILCCAIWLRMLNMIIINGIIRAGGDNVFCLRMDFIAMWMTGLPLCAIAAFVLGWEFKYVYALMIAEEVVKLALCYRRYTQKYWIKNLTVVTTS | not failed
MVGEVVLVNAYKKFFREYFNFKGKTSRLDFWYVILSLLILSIIPTAILSYLIFGSLMSISGGGNVQEIMEITFLNIPIFIIGIIYLFLFVPVITMTVRRWRDVGLRASGIILIFCLLVLIVILGFIIHLKQNIIIDFLIVISSSMFLITLMPSQICCTNSKNRISQFFFCSKGER | failed
MATSAKTLQQRMGIIALTWPIFIETLLQSLLGISDIFMLSHYSDNAVAAVGLTTQLMFFMMVMSMMVSTGASILISQNNGAGRTQEATDIGVASVALSLGLAVVMGAAMFFCAHGIIGLFELEPKVAGYGYDYLLICGSLSIGLVMNIAFAAILRSYGFTRSAMLVTLSTGLMNVLGNYIALYSPFGLPVYGVTGVAISTVTSQLMGALIMLAVIRSKHIPLPMQRLNSLPRSTYWSVMRIGLLNAGEMLSYNVAQMTIIYFISQMGTLSLTAYTYGLNISRFIYCFSVALGQAAQIQTGYYVGKQWFDEITVRVQKYCLVGFIVSLAIVLIFFWQRFTIVGWLSENPEVIQLTALLLLGSIALETGRVFNLVIISALKGAGDVAFTVRVGLFSMWGIGVLLAWFFGLYLGYGVLAAWLAVAADEWVRGLIMVQRWRSGRWQRFTRIPPATSA | failed
MVKLDRYIGSSVFMAILAVLGIILGLASLFAFIDEMGAVNETYTVVDVMSYVALTAPRRVYEMLPMAGLIGCLIGLGSLASNSELTIMRAAGVSVGRIVWAVMKPMLVLMLVGVLVGEYVAPATETQAQASRALAQGSGDAQSSKHGLWHRQGDEFIHINAVQPNGLLYGVTRYHFDDQRHMLSSSFARQARFHEDYWQLTDVTTTYFRDGHTEVISVPGERWDVALSPQLLSTVVMAPESLSISGLWGYIHYLADQGLNNGRYWLAFWVKVLQPLVTAALVLMAISFIFGPLRSVTLGQRVFTGVLVGFTFRIAQDLLGPSSLVFGFSPLFAVLVPAGICAVAGVWLLRRAG | failed

Source: a protein production outcome set (Wang et al. 2014)
